# Data taken from publication PMC9413830.
# System: Lys1 (position 1, -----K-----)
# Test: potentiometry
# Conditions: No added salt; only the amphiphile counterions and the added NaOH; none (ultrapure water); 4 mM amphiphile, self-assembled; the assembly morphology changes with pH during the titration
substance,measurement,value
C12-K (lysine amphiphile with a C12 alkyl tail) (synthetic),pKa,8.69
C14-K (lysine amphiphile with a C14 alkyl tail) (synthetic),pKa,8.01
C16-K (lysine amphiphile with a C16 alkyl tail; L enantiomer titrated) (synthetic),pKa,7.66
